B1: Pistol ribozyme (parent)
chain: GGGUCGUUGUUCCAUAAUCGCGUGGAUAUGGCACGCAAGUUUCUACCGGGCACCGUAAAUGUCCGACUGGAGCCGUUCGGGCGGCUAUAAACAGACCUCAGGCCCGAAGCGUGGCGGCACCUGCCGCCGGUGGUAAAAAAGAUCGGAAGAGCACACGUCU

Variants of: B1
Assay: aptazyme ON/OFF ratio, guanine; higher = stronger switching; co-transcriptional cleavage with and without guanine

Point of comparison: GGGUCGUUAGACAAUAAUCGCGUGGAUAUGGCACGCAAGUUUCUACCGGGCACCGUAAAUGUCCGACUGGAGCCGUUCGGGCGGCUAUAAACAGACCUCAGGCCCGAAGCGUGGCGGCACCUGCCGCCGGUGGUAAAAAAGAUCGGAAGAGCACACGUCU [G9A U10G U11A C13A], “aptazyme ON/OFF ratio” value 1.01. Against it:
- GGGUCGGAUUGAUAUAAUCGCGUGGAUAUGGCACGCAAGUUUCUACCGGGCACCGUAAAUGUCCGACUGGAGCCGUUCGGGCGGCUAUAAACAGACCUCAGGCCCGAAGCGUGGCGGCACCUGCCGCCGGUGGUAAAAAAGAUCGGAAGAGCACACGUCU [U7G U8A G9U U11G C12A C13U] — higher, 1.09
- GGGUCGAAGCUAAAUAAUCGCGUGGAUAUGGCACGCAAGUUUCUACCGGGCACCGUAAAUGUCCGACUGGAGCCGUUCGGGCGGCUAUAAACAGACCUCAGGCCCGAAGCGUGGCGGCACCUGCCGCCGGUGGUAAAAAAGAUCGGAAGAGCACACGUCU [U7A U8A U10C C12A C13A] — higher, 1.13
- GGGUCGUGCCCGAAUAAUCGCGUGGAUAUGGCACGCAAGUUUCUACCGGGCACCGUAAAUGUCCGACUGGAGCCGUUCGGGCGGCUAUAAACAGACCUCAGGCCCGAAGCGUGGCGGCACCUGCCGCCGGUGGUAAAAAAGAUCGGAAGAGCACACGUCU [U8G G9C U10C U11C C12G C13A] — higher, 1.11
- GGGUCGGGCCGUCAUAAUCGCGUGGAUAUGGCACGCAAGUUUCUACCGGGCACCGUAAAUGUCCGACUGGAGCCGUUCGGGCGGCUAUAAACAGACCUCAGGCCCGAAGCGUGGCGGCACCUGCCGCCGGUGGUAAAAAAGAUCGGAAGAGCACACGUCU [U7G U8G G9C U10C U11G C12U] — higher, 1.37
- GGGUCGGCGCCGAAUAAUCGCGUGGAUAUGGCACGCAAGUUUCUACCGGGCACCGUAAAUGUCCGACUGGAGCCGUUCGGGCGGCUAUAAACAGACCUCAGGCCCGAAGCGUGGCGGCACCUGCCGCCGGUGGUAAAAAAGAUCGGAAGAGCACACGUCU [U7G U8C U10C U11C C12G C13A] — higher, 1.16
- GGGUCGGCUGCCUAUAAUCGCGUGGAUAUGGCACGCAAGUUUCUACCGGGCACCGUAAAUGUCCGACUGGAGCCGUUCGGGCGGCUAUAAACAGACCUCAGGCCCGAAGCGUGGCGGCACCUGCCGCCGGUGGUAAAAAAGAUCGGAAGAGCACACGUCU [U7G U8C G9U U10G U11C C13U] — higher, 1.18
- GGGUCGGAGAACAAUAAUCGCGUGGAUAUGGCACGCAAGUUUCUACCGGGCACCGUAAAUGUCCGACUGGAGCCGUUCGGGCGGCUAUAAACAGACCUCAGGCCCGAAGCGUGGCGGCACCUGCCGCCGGUGGUAAAAAAGAUCGGAAGAGCACACGUCU [U7G U8A U10A U11A C13A] — higher, 1.2
- GGGUCGAUUGUCCAUAAUCGCGUGGAUAUGGCACGCAAGUUUCUACCGGGCACCGUAAAUGUCCGACUGGAGCCGUUCGGGCGGCUAUAAACAGACCUCAGGCCCGAAGCGUGGCGGCACCUGCCGCCGGUGGUAAAAAAGAUCGGAAGAGCACACGUCU [U7A G9U U10G] — higher, 1.75
- GGGUCGCUAUCAGAUAAUCGCGUGGAUAUGGCACGCAAGUUUCUACCGGGCACCGUAAAUGUCCGACUGGAGCCGUUCGGGCGGCUAUAAACAGACCUCAGGCCCGAAGCGUGGCGGCACCUGCCGCCGGUGGUAAAAAAGAUCGGAAGAGCACACGUCU [U7C G9A U11C C12A C13G] — higher, 1.12
- GGGUCGCCCGCACAUAAUCGCGUGGAUAUGGCACGCAAGUUUCUACCGGGCACCGUAAAUGUCCGACUGGAGCCGUUCGGGCGGCUAUAAACAGACCUCAGGCCCGAAGCGUGGCGGCACCUGCCGCCGGUGGUAAAAAAGAUCGGAAGAGCACACGUCU [U7C U8C G9C U10G U11C C12A] — higher, 1.09
- GGGUCGUGCGUGGAUAAUCGCGUGGAUAUGGCACGCAAGUUUCUACCGGGCACCGUAAAUGUCCGACUGGAGCCGUUCGGGCGGCUAUAAACAGACCUCAGGCCCGAAGCGUGGCGGCACCUGCCGCCGGUGGUAAAAAAGAUCGGAAGAGCACACGUCU [U8G G9C U10G C12G C13G] — higher, 1.08
- GGGUCGACGGUUAAUAAUCGCGUGGAUAUGGCACGCAAGUUUCUACCGGGCACCGUAAAUGUCCGACUGGAGCCGUUCGGGCGGCUAUAAACAGACCUCAGGCCCGAAGCGUGGCGGCACCUGCCGCCGGUGGUAAAAAAGAUCGGAAGAGCACACGUCU [U7A U8C U10G C12U C13A] — higher, 1.21
- GGGUCGCAUAGUCAUAAUCGCGUGGAUAUGGCACGCAAGUUUCUACCGGGCACCGUAAAUGUCCGACUGGAGCCGUUCGGGCGGCUAUAAACAGACCUCAGGCCCGAAGCGUGGCGGCACCUGCCGCCGGUGGUAAAAAAGAUCGGAAGAGCACACGUCU [U7C U8A G9U U10A U11G C12U] — higher, 1.13
- GGGUCGGUUGGUAAUAAUCGCGUGGAUAUGGCACGCAAGUUUCUACCGGGCACCGUAAAUGUCCGACUGGAGCCGUUCGGGCGGCUAUAAACAGACCUCAGGCCCGAAGCGUGGCGGCACCUGCCGCCGGUGGUAAAAAAGAUCGGAAGAGCACACGUCU [U7G G9U U10G U11G C12U C13A] — higher, 1.22
- GGGUCGGUUUGCUAUAAUCGCGUGGAUAUGGCACGCAAGUUUCUACCGGGCACCGUAAAUGUCCGACUGGAGCCGUUCGGGCGGCUAUAAACAGACCUCAGGCCCGAAGCGUGGCGGCACCUGCCGCCGGUGGUAAAAAAGAUCGGAAGAGCACACGUCU [U7G G9U U11G C13U] — higher, 1.26
- GGGUCGGUUUGCGAUAAUCGCGUGGAUAUGGCACGCAAGUUUCUACCGGGCACCGUAAAUGUCCGACUGGAGCCGUUCGGGCGGCUAUAAACAGACCUCAGGCCCGAAGCGUGGCGGCACCUGCCGCCGGUGGUAAAAAAGAUCGGAAGAGCACACGUCU [U7G G9U U11G C13G] — higher, 1.3
- GGGUCGCCCCCCCAUAAUCGCGUGGAUAUGGCACGCAAGUUUCUACCGGGCACCGUAAAUGUCCGACUGGAGCCGUUCGGGCGGCUAUAAACAGACCUCAGGCCCGAAGCGUGGCGGCACCUGCCGCCGGUGGUAAAAAAGAUCGGAAGAGCACACGUCU [U7C U8C G9C U10C U11C] — higher, 1.14

Source: the RNAGym collection of RNA variant scans (doi:10.1021/acssynbio.7b00057)
